Earlier results, collected in PMC5427998 (Chemical Science, 2017).
Bridges are numbered along the chain shown (N, C = ends). Where no end group is shown, it is not given here.

Settings: 95 °C

Microcin J25 (GGAGHVPEYFVGIGTPISFYG; lactam N-8; UniProt Q9X2V7 38-58, looked up) [MccJ25]
thermal denaturation / retention of threaded structure: did not denature
